Measured values taken from PMC9995687.

Molecular target: Human STIM1, N-terminally ECFP-tagged, Q13586-1
Assay: FRET microscopy (Eapp) in cells
Settings: read off a plot

Substance | response (+TG (1 μM), +UV, n = 8) [Eapp] | response (+TG (1 μM), -UV, n = 8) [Eapp] | response (-TG, +UV, n = 8) [Eapp] | response (-TG, -UV, n = 8) [Eapp] | response (+TG (1 μM), +UV, n = 9, parent: est. 0.11) [Eapp] | response (+TG (1 μM), -UV, n = 9, parent: est. 0.11) [Eapp] | response (-TG, +UV, n = 9, parent: est. 0.010) [Eapp] | response (-TG, -UV, n = 9, parent: est. 0.008) [Eapp]
Human Orai1 wild-type, C-terminally YFP-labelled (from UniProt Q96D31-1) A137Bpa | 0.11 | 0.11 | 0.01 | 0.008 |  |  |  | 
Orai1 A137Bpa, C-terminally YFP-labelled (from UniProt Q96D31-1) L273D |  |  |  |  | 0.004 | 0.002 | 0.003 | 0.006
